We go through two molecules from paper PMC4598862, “Proteasome Activation is Mediated via a Functional Switch of the Rpt6 C-terminal Tail Following Chaperone-dependent Assembly” (Scientific Reports, 2015).

The target in one assay is T1, α3-T81C-HA6 (S. cerevisiae, UniProt P23638 1-258, T81C).
T1 construct: CP subunit α3, entire open reading frame with the cysteine substitution; also called α3^HA; source: expressed from the chromosomal locus in S. cerevisiae, immunoprecipitated from lysate on HA-agarose beads; not shown: 6xHA, C-terminal, kept
T1 sequence (looked up): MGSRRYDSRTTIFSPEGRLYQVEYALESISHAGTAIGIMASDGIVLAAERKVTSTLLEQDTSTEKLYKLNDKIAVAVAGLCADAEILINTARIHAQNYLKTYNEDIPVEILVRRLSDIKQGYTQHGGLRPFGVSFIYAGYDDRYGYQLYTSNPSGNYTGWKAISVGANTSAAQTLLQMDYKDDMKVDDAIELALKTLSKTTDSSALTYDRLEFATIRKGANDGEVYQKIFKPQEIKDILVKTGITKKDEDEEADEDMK
Briefly: cross-linking; proteasomes immunoprecipitated from yeast lysate on HA-agarose via the 6xHA tag of the α subunit, 1 mM ATP; engineered cysteine pair cross-linked with 0.1 mM BMOE, 1 h at 4 °C; SDS-PAGE, immunoblot for the Rpt protein and HA; wild-type and nas6Δ cells (no influence of Nas6); Rpt3-α2 also in rpt6-Δ1 cells (decreased). Particulars: partners not purified.

Assay [1] concerns the target α2-A79C-HA6 (S. cerevisiae) (UniProt P23639). Briefly: cross-linking; as a8 but with 2 mM ADP (0.5 mM ADP in the washes).

B1: Rpt6-K405C (natural protein, S. cerevisiae, UniProt Q01939 1-405, looked up)
chain: MTAAVTSSNIVLETHESGIKPYFEQKIQETELKIRSKTENVRRLEAQRNALNDKVRFIKDELRLLQEPGSYVGEVIKIVSDKKVLVKVQPEGKYIVDVAKDINVKDLKASQRVCLRSDSYMLHKVLENKADPLVSLMMVEKVPDSTYDMVGGLTKQIKEIKEVIELPVKHPELFESLGIAQPKGVILYGPPGTGKTLLARAVAHHTDCKFIRVSGAELVQKYIGEGSRMVRELFVMAREHAPSIIFMDEIDSIGSTRVEGSGGGDSEVQRTMLELLNQLDGFETSKNIKIIMATNRLDILDPALLRPGRIDRKIEFPPPSVAARAEILRIHSRKMNLTRGINLRKVAEKMNGCSGADVKGVCTEAGMYALRERRIHVTQEDFELAVGKVMNKNQETAISVAKLFC
notes: RP base ATPase Rpt6; K405 is the last residue of Rpt6; source: expressed from the chromosomal locus in S. cerevisiae, in proteasomes immunoprecipitated from lysate via α3-HA6
B1: the “percent decrease of the crosslink ratio (ATP) relative to the Rpt3-α2^HA ratio (ATP)” value with α3-T81C-HA6 amounted to 43.6%.

B2: Rpt3-K428C (natural protein)
chain: MEELGIVTPVEKAVEEKPAVKSYASLLAQLNGTVNNNSALSNVNSDIYFKLKKLEKEYELLTLQEDYIKDEQRHLKRELKRAQEEVKRIQSVPLVIGQFLEPIDQNTGIVSSTTGMSYVVRILSTLDRELLKPSMSVALHRHSNALVDILPPDSDSSISVMGENEKPDVTYADVGGLDMQKQEIREAVELPLVQADLYEQIGIDPPRGVLLYGPPGTGKTMLVKAVANSTKAAFIRVNGSEFVHKYLGEGPRMVRDVFRLARENAPSIIFIDEVDSIATKRFDAQTGSDREVQRILIELLTQMDGFDQSTNVKVIMATNRADTLDPALLRPGRLDRKIEFPSLRDRRERRLIFGTIASKMSLAPEADLDSLIIRNDSLSGAVIAAIMQEAGLRAVRKNRYVILQSDLEEAYATQVKTDNTVDKFDFYC
Regarding B2, the percent decrease of crosslinking under ADP relative to ATP in assay [1] is 90%.
